± gives the uncertainty stated by the source.
Experiment: self-splicing fitness, log relative to wild type (ln ratio); higher = more splicing; Tetrahymena group I intron in knt gene, E. coli kanamycin selection, DiMSum; sequences stand for … in CUCUCU…GGAGGGAAAAGUUAUCAGGCAUGCACCUGGUAGCUAGUCUUUAAACCAAUAGAUUGCAUCGGUUUAAAAGGCAAGACCGUCAAAUUGCGGGAAAGGGGUCAACAGCCGUUCAGUACCAAGUCUCAGGGGAAACUUUGAGAUGGCCUUGCAAAGGGUAUGGUAAUAAGCUGACGGACAUGGUCCUAACCACGCAGCCAAGUCCUAAGUCAACAGAUCUUCUGUUGAUAUGGAUGCAGUUCACAGACUAAAUGUCGGUCGGGGAAGAUGUAUUCUUCUCAUAAGAUAUAGUCGGACCUCUCCUUAAUGGGAGCUAGCGGAUGAAGUGAUGCAACACUGGAGCCGCUGGGAACUAAUUUGUAUGCGAAAGUAUAUUGAUUAGUUUUGGAGUACUCGUGGUCG
Method in brief: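 Library with all eight P1ex-region intron nucleotides randomised, intron inside the knt kanamycin-resistance gene on pET-22b(+), in E. coli BL21(DE3). Cells grew overnight at 37°C or 30°C on LB agar with or without 25 μg/mL kanamycin (plus 100 μg/mL carbenicillin, 50 μM IPTG, 0.2% rhamnose), in six replicate transformations. Pooled colonies were amplicon-sequenced on Illumina HiSeq 2500. DiMSum fitness is the error-weighted combination of wild-type-normalised replicate fold changes, kanamycin versus none.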

Row | Sequence | self-splicing fitness (ln) (30 °C) | self-splicing fitness (ln) (37 °C)
1 | CUCAAGCAAUAUUACGAGCU | -4.33 ± 0.3 | -4.08 ± 0.39
2 | CUCAAGCAAUAUUACGCACA | -2.17 ± 0.34 | -2.48 ± 0.28
3 | CUCAAGCAAUAUUACGCAUU | -3.4 ± 0.15 | -2.7 ± 0.19
4 | CUCAAGCAAUAUUACGCCCG | -0.954 ± 0.17 | -2.11 ± 0.21
5 | CUCAAGCAAUAUUACGCCUU |  | -3.47 ± 0.39
6 | CUCAAGCAAUAUUACGCGCA | -2.95 ± 0.16 | -2.21 ± 0.15
7 | CUCAAGCAAUAUUACGCUAU | -3.05 ± 0.18 | -2.17 ± 0.16
8 | CUCAAGCAAUAUUACGGACA | -2.5 ± 0.35 | -2.1 ± 0.32
9 | CUCAAGCAAUAUUACGGAGA | -2.83 ± 0.19 | -1.98 ± 0.15
10 | CUCAAGCAAUAUUACGGGAC | -3.7 ± 0.33 | -2.14 ± 0.3
11 | CUCAAGCAAUAUUACGGGAU | -3.47 ± 0.12 | -1.34 ± 0.099
12 | CUCAAGCAAUAUUACGGUAC |  | -3.06 ± 0.37
13 | CUCAAGCAAUAUUACGUAAG | -0.417 ± 0.054 | -0.102 ± 0.086
14 | CUCAAGCAAUAUUACGUCAA | -4.09 ± 0.35 | -2.31 ± 0.19
15 | CUCAAGCAAUAUUACGUCAC | -3.4 ± 0.22 | -2.7 ± 0.21
16 | CUCAAGCAAUAUUACGUGCA | -3.43 ± 0.26 | -1.85 ± 0.19
17 | CUCCAGCAAUAUUACGACAG | -1.4 ± 0.14 | -0.3 ± 0.14
18 | CUCCAGCAAUAUUACGAGUA | -2.58 ± 0.16 | -2.14 ± 0.14
19 | CUCCAGCAAUAUUACGAUAC | -3.57 ± 0.31 | -1.94 ± 0.32
20 | CUCCAGCAAUAUUACGCACG | -1.52 ± 0.13 | -1.12 ± 0.18
21 | CUCCAGCAAUAUUACGCAGU | -3.59 ± 0.21 | -2.04 ± 0.23

Row | Sequence | self-splicing fitness (ln) (30 °C) | self-splicing fitness (ln) (37 °C)
22 | CUCCAGCAAUAUUACGCCAA |  | -2.07 ± 0.27
23 | CUCCAGCAAUAUUACGCGGC | -1.8 ± 0.26 | -2.08 ± 0.39
24 | CUCCAGCAAUAUUACGCUAA | -3.28 ± 0.27 | -2.62 ± 0.42
25 | CUCCAGCAAUAUUACGCUUA | -4.14 ± 0.34 | -2.49 ± 0.24
26 | CUCCAGCAAUAUUACGGAAG | -3.34 ± 0.16 | -3.14 ± 0.24
27 | CUCCAGCAAUAUUACGGACG | -0.729 ± 0.059 | -0.666 ± 0.09
28 | CUCCAGCAAUAUUACGGCUC | -2.78 ± 0.23 | -1.57 ± 0.17
29 | CUCCAGCAAUAUUACGGUAU | -4.21 ± 0.22 | -3.58 ± 0.19
30 | CUCCAGCAAUAUUACGGUGA | -2 ± 0.099 | -1.39 ± 0.11
31 | CUCCAGCAAUAUUACGUCCA | -3.35 ± 0.39 | -3.24 ± 0.33
32 | CUCCAGCAAUAUUACGUCGU | -3.07 ± 0.12 | -2.72 ± 0.18
33 | CUCCAGCAAUAUUACGUGCA | -3.43 ± 0.17 | -2.32 ± 0.13
34 | CUCCAGCAAUAUUACGUGGG | -3.29 ± 0.11 | -2.62 ± 0.14
35 | CUCCAGCAAUAUUACGUUAG | -2.15 ± 0.094 | -1.51 ± 0.12
36 | CUCCAGCAAUAUUACGUUCU | -2.89 ± 0.15 | -3.65 ± 0.46
37 | CUCCAGCAAUAUUACGUUUU | -3.38 ± 0.12 | -3.12 ± 0.15
38 | CUCGAGCAAUAUUACGAUAA | -2.16 ± 0.36 | -2.02 ± 0.37
39 | CUCGAGCAAUAUUACGCACU | -2.96 ± 0.3 | 
40 | CUCGAGCAAUAUUACGGACG | -2.4 ± 0.15 | -2.25 ± 0.23
41 | CUCGAGCAAUAUUACGGCGU | -1.96 ± 0.12 | -1.61 ± 0.18
42 | CUCGAGCAAUAUUACGGCUA |  | -2.32 ± 0.39

Row | Sequence | self-splicing fitness (ln) (30 °C) | self-splicing fitness (ln) (37 °C)
43 | CUCGAGCAAUAUUACGGGUC | -3.33 ± 0.28 | -1.77 ± 0.31
44 | CUCGAGCAAUAUUACGGUAC | -2.82 ± 0.22 | -2.84 ± 0.4
45 | CUCGAGCAAUAUUACGGUCA | -2.89 ± 0.28 | -0.817 ± 0.23
46 | CUCGAGCAAUAUUACGUAAC | -1.53 ± 0.28 | 
47 | CUCGAGCAAUAUUACGUAAU |  | -1.42 ± 0.29
48 | CUCGAGCAAUAUUACGUCAA | -3.49 ± 0.3 | -1.81 ± 0.26
49 | CUCGAGCAAUAUUACGUGCC | -3.35 ± 0.35 | 
50 | CUCGAGCAAUAUUACGUGGA | -2.89 ± 0.27 | -1.88 ± 0.16
51 | CUCGAGCAAUAUUACGUUCA | -3.47 ± 0.35 | 
52 | CUCGAGCAAUAUUACGUUCG |  | -3.15 ± 0.47
53 | CUCUAGCAAUAUUACGAAAA |  | -1.12 ± 0.2
54 | CUCUAGCAAUAUUACGAACG | -0.887 ± 0.097 | -0.112 ± 0.11
55 | CUCUAGCAAUAUUACGAAGA |  | -2.75 ± 0.26
56 | CUCUAGCAAUAUUACGAAUG | -1.55 ± 0.091 | -1.1 ± 0.11
57 | CUCUAGCAAUAUUACGACGG | -2.32 ± 0.18 | -1.98 ± 0.29
58 | CUCUAGCAAUAUUACGAGAC |  | -1.17 ± 0.26
59 | CUCUAGCAAUAUUACGAGCG | -2.79 ± 0.14 | -2.73 ± 0.16
60 | CUCUAGCAAUAUUACGAGUC |  | -2.8 ± 0.3
61 | CUCUAGCAAUAUUACGAUAA | -3.29 ± 0.27 | -2 ± 0.24
62 | CUCUAGCAAUAUUACGCACA | -3.24 ± 0.4 | -3.82 ± 0.46
63 | CUCUAGCAAUAUUACGCUGA | -1.6 ± 0.21 | -2.31 ± 0.27

Row | Sequence | self-splicing fitness (ln) (30 °C) | self-splicing fitness (ln) (37 °C)
64 | CUCUAGCAAUAUUACGCUGC | -3.58 ± 0.44 | 
65 | CUCUAGCAAUAUUACGGAAG | -2.95 ± 0.13 | -1.34 ± 0.12
66 | CUCUAGCAAUAUUACGGCGU | -3.56 ± 0.27 | -2.83 ± 0.24
67 | CUCUAGCAAUAUUACGGUAU | -2.7 ± 0.16 | -2.77 ± 0.23
68 | CUCUAGCAAUAUUACGGUCU | -3.26 ± 0.2 | -3.06 ± 0.23
69 | CUCUAGCAAUAUUACGGUUU | -3.04 ± 0.41 | -1.82 ± 0.29
70 | CUCUAGCAAUAUUACGUCGC |  | -3.28 ± 0.47
71 | CUCUAGCAAUAUUACGUGCC | -3.23 ± 0.28 | -3.62 ± 0.39
72 | CUCUAGCAAUAUUACGUGCU | -2.48 ± 0.3 | -2.38 ± 0.27
73 | CUCUAGCAAUAUUACGUGGU | -5.48 ± 0.41 | -3.5 ± 0.22
74 | CUCUAGCAAUAUUACGUUCA | -3.66 ± 0.34 | -3.02 ± 0.27
75 | CUGAAGCAAUAUUACGAAAC | -3.39 ± 0.25 | 
76 | CUGAAGCAAUAUUACGACUC | -1.82 ± 0.22 | 
77 | CUGAAGCAAUAUUACGACUG | 0.187 ± 0.08 | 0.678 ± 0.11
78 | CUGAAGCAAUAUUACGAGAG | -1.32 ± 0.088 | -1.18 ± 0.11
79 | CUGAAGCAAUAUUACGAGGG | -2.03 ± 0.11 | -1.25 ± 0.14
80 | CUGAAGCAAUAUUACGAUGA | -3.52 ± 0.21 | -1.92 ± 0.16
81 | CUGAAGCAAUAUUACGAUGU | -3.12 ± 0.13 | -1.21 ± 0.12
82 | CUGAAGCAAUAUUACGCAGG | -1.8 ± 0.082 | -1.77 ± 0.12

Source: the supplement of paper PMC7877785
